In patent US20130122566A1, “NOVEL ENZYME PROTEIN, PROCESS FOR PRODUCTION OF THE ENZYME PROTEIN THE SAME, AND GENE ENCODING THE ENZYME PROTEIN THE SAME” (JAPAN TOBACCO INC., priority 2010, published 2013):
Residue numbers refer to the chain shown, from its start. Names may count otherwise.

Tests used:
[1] = molecular target: T1, Photobacterium phosphoreum strain JT-ISH-467 β-galactoside-α2,3-sialyltransferase N2C0 (ISH467-N2C0), wild type, SEQ ID NO: 2, not containing His×6-Tag (Photobacterium phosphoreum, UniProt A5LHX0); experiment: Sialyltransferase kinetics for lactose and CMP-sialic acid, wild-type N2C0 enzyme; type: biochemical
T1 sequence (A5LHX0 with tags, fused parts or gaps): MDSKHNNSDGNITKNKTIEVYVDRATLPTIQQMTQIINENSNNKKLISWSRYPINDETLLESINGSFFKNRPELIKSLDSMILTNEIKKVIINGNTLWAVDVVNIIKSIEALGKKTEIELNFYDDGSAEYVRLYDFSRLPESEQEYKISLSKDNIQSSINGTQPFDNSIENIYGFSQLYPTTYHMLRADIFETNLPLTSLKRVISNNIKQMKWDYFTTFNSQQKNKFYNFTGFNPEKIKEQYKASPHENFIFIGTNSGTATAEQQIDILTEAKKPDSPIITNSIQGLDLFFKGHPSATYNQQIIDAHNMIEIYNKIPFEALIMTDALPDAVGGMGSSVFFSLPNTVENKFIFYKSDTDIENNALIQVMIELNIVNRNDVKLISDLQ

[2] = molecular target: T2, Photobacterium phosphoreum strain JT-ISH-467 β-galactoside-α2,3-sialyltransferase N2C0 variant F318AE319A (ISH467-N2C0-F318AE319A); Phe318 and Glu319 of SEQ ID N (Photobacterium phosphoreum, UniProt A5LHX0, E342A/F341A); experiment: Sialyltransferase kinetics for lactose and CMP-sialic acid, F318A E319A variant enzyme; type: biochemical; conditions: not containing His×6-Tag
T2 sequence (A5LHX0 with tags, fused parts or gaps F341A/E342A): T1 sequence (A5LHX0 with tags, fused parts or gaps) with F318A, E319A
Method: The β-galactoside-α2,3-sialyltransferase activities of variant-type N2C0 proteins (four variants: F318A, E319A, F318AE319A, and S337A) each containing His×6-Tag purified in Example 1 (2) were measured. The sialyltransferase activity was measured by the method as described in J. Biochem., 120, 104-110, (1996) (hereby incorporated by reference in its entirety). […] The enzyme reaction was performed at 30° C. for 5 minutes. After the completion of the reaction, 1.97 mL of 5 mM phosphate buffer (pH 6.8) was added to the reaction solution, which was then applied to a Dowex 1×8 (PO4^3− form, 0.2×2 cm, manufactured by Bio-Rad Laboratories, Inc.) column. The reaction product contained in the eluate (0 to 2 mL) from this column, i.e., the radioactivity contained in sialyllactose was measured to calculate the enzyme activity. One enzyme unit (1 U) is defined as the amount of the enzyme required to release one micromole of sialic acid per minute.

[3] = substrate: CC(=O)N[C@H]1[C@H]([C@H](O)[C@H](O)CO)O[C@](OP(=O)(O)OC[C@H]2O[C@@H](n3ccc(N)nc3=O)[C@H](O)[C@@H]2O)(C(=O)O)C[C@@H]1O; experiment: purified protein, by the assay type; conditions: not containing His×6-Tag, 30.0 °C
[4] = substrate: OC[C@H]1O[C@@H](O[C@H]2[C@H](O)[C@@H](O)C(O)O[C@@H]2CO)[C@H](O)[C@@H](O)[C@H]1O; experiment: purified protein, by the assay type; conditions: not containing His×6-Tag, 30.0 °C
[5] = substrate: CC(=O)N[C@H]1[C@H]([C@H](O)[C@H](O)CO)O[C@](OP(=O)(O)OC[C@H]2O[C@@H](n3ccc(N)nc3=O)[C@H](O)[C@@H]2O)(C(=O)O)C[C@@H]1O; experiment: purified protein, by the assay type; type: biochemical, Photobacterium phosphoreum strain JT-ISH-467; conditions: other: E319A variant enzyme, not containing His×6-Tag; 30.0 °C
Method: (§1) The sialyltransferase activity was measured by the method as described in J. Biochem., 120, 104-110, (1996) (hereby incorporated by reference in its entirety). […] The enzyme reaction was performed at 30° C. for 5 minutes. After the completion of the reaction, 1.97 mL of 5 mM phosphate buffer (pH 6.8) was added to the reaction solution, which was then applied to a Dowex 1×8 (PO4^3− form, 0.2×2 cm, manufactured by Bio-Rad Laboratories, Inc.) column. […] One enzyme unit (1 U) is defined as the amount of the enzyme required to release one micromole of sialic acid per minute.

[6] = substrate: OC[C@H]1O[C@@H](O[C@H]2[C@H](O)[C@@H](O)C(O)O[C@@H]2CO)[C@H](O)[C@@H](O)[C@H]1O; experiment: purified protein, by the assay type; type: biochemical, Photobacterium phosphoreum strain JT-ISH-467; conditions: other: E319A variant enzyme, not containing His×6-Tag; 30.0 °C
Method: as §1

[7] = other: wild-type N2C0 enzyme, pH 6.8
[8] = other: F318A E319A variant enzyme

**Q.** What does the source list for `OC[C@H]1O[C@@H](O[C@H]2[C@H](O)[C@@H](O)C(O)O[C@@H]2CO)[C@H](O)[C@@H](O)[C@H]1O` (stereo partly drawn) [Lactose, lactose]?
**A.** Vmax [1]: 3.9 nmol/min; kcat [1]: 11.2 s⁻¹; Vmax [2]: 7.2 nmol/min; kcat [2]: 10.8 s⁻¹

**Q.** `CC(=O)N[C@H]1[C@H]([C@H](O)[C@H](O)CO)O[C@](OP(=O)(O)OC[C@H]2O[C@@H](n3ccc(N)nc3=O)[C@H](O)[C@@H]2O)(C(=O)O)C[C@@H]1O` [CMP-sialic acid, cytidine monophosphate (CMP)-sialic acid] was tested. Which Vmax [1] did it give?
**A.** The Vmax was 7.3 nmol/min.

**Q.** What about the kcat [1] of the same molecule?
**A.** The kcat was 21.0 s⁻¹.

**Q.** What about the Vmax [2] of the same molecule?
**A.** The Vmax was 8.9 nmol/min.

**Q.** What about the kcat [2] of the same molecule?
**A.** Its kcat is 13.3 s⁻¹.

B1: Photobacterium phosphoreum strain JT-ISH-467 β-galactoside-α2,3-sialyltransferase N2C0 (ISH467-N2C0), wild type, SEQ ID NO: 2, not containing His×6-Tag … (protein)
chain: T1 sequence (A5LHX0 with tags, fused parts or gaps)
**Q.** B1 was tested. Which Km [3, 7] did it give?
**A.** Its Km is 0.72 mM.

**Q.** And the Km [4, 7]?
**A.** Its Km is 8.4 mM.

B2: Photobacterium phosphoreum strain JT-ISH-467 β-galactoside-α2,3-sialyltransferase N2C0 variant E319A (ISH467-N2C0-E319A; Glu319 of SEQ ID NO: 2 replaced with … (protein)
chain: T1 sequence (A5LHX0 with tags, fused parts or gaps) with E319A
**Q.** For B2, which Km [5] is on record?
**A.** The Km was 0.53 mM.

**Q.** And the Vmax [5]?
**A.** The Vmax was 3.2 nmol/min.

**Q.** And the kcat [5]?
**A.** Its kcat is 106.3 s⁻¹.

**Q.** What about the Km [6] of the same molecule?
**A.** Its Km is 22 mM.

**Q.** And the Vmax [6]?
**A.** Its Vmax is 0.012 µmol/min.

**Q.** And the kcat [6]?
**A.** The kcat was 99.7 s⁻¹.

B3: Photobacterium phosphoreum strain JT-ISH-467 β-galactoside-α2,3-sialyltransferase N2C0 variant F318AE319A (ISH467-N2C0-F318AE319A; Phe318 and Glu319 of SEQ ID … (protein)
chain: T1 sequence (A5LHX0 with tags, fused parts or gaps) with F318A, E319A
**Q.** Which Km [3, 8] does the source give for B3 here?
**A.** Its Km is 1.59 mM.

**Q.** And the Km [4, 8]?
**A.** Its Km is 85 mM.
